Residue numbers refer to the chain shown, from its start. Like-named read-outs stand apart in the source and are kept apart here.
Assays:
human CD7 [1] = molecular target: T1, human CD7 (human, UniProt P09564 26-180, limits assumed); test: SPR; reference 7-AA-WT
T1 construct: The construct is not described
T1 sequence (looked up): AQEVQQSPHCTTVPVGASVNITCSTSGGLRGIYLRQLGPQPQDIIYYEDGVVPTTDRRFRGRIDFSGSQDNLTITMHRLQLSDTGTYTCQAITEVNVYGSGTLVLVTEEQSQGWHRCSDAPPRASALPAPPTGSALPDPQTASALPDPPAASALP

human CD7 [2] = molecular target: T1, human CD7; test: SPR
human CD7 on cells [3] = molecular target: T2, human CD7 on cells (human, UniProt P09564 26-240); test: FACS; reference 7-PP-1 WT (itself)
T2 construct: whole, on cells; Target of the FACS and cell capture values and of the kill assays on CD7 single positive cells; also called CD7+ cells; Jurkat (CD33-/CD7+)
T2 sequence (looked up): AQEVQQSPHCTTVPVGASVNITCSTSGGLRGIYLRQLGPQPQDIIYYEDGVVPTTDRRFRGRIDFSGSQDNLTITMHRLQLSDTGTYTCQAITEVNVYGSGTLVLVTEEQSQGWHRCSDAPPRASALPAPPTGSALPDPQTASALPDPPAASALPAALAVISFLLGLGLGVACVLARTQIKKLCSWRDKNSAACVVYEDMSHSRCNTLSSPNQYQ

human CD7 on cells [4] = molecular target: T2, human CD7 on cells; test: FACS; cells not named
human CD7 on cells [5] = molecular target: T2, human CD7 on cells; test: FACS; reference 7-PP-1 WT
human CD7 [6] = molecular target: T1, human CD7; test: SPR; reference 7-PP-1 WT
human CD7 on cells [7] = molecular target: T2, human CD7 on cells; test: cell capt. exp.; parameters: unit not given here
human CD33 [8] = molecular target: T3, human CD33 (human, UniProt P20138 18-259, limits assumed); test: SPR (Kd); value of the CD33 arm 33-PP-4
T3 construct: The construct is not described

human CD7 [9] = molecular target: T1, human CD7; test: SPR (Kd); value of the CD7 arm 7-PP-1 WT
human CD7 [10] = molecular target: T1, human CD7; test: SPR (Kd); value of the CD7 arm 7-PP-13
human CD33 [11] = molecular target: T3, human CD33; test: SPR; reference 33-PP-1 WT
human CD33 [12] = molecular target: T3, human CD33; test: SPR
human CD33 on cells = molecular target: T4, human CD33 on cells (human, UniProt P20138 18-364); test: FACS; cells not named
T4 construct: whole, on cells; also called CD33+ cells; MV4.11 (CD7-/CD33+)

human CD33 [13] = molecular target: T3, human CD33; test: SPR (Kd); value of the CD33 arm 33-PP-1 WT
human CD7 [14] = molecular target: T1, human CD7; test: SPR (Kd); value of the CD7 arm 7-PP-2
human CD7 [15] = molecular target: T1, human CD7; test: SPR (Kd); value of the CD7 arm 7-PP-6
human CD7 [16] = molecular target: T1, human CD7; test: SPR (Kd); value of the CD7 arm 7-PP-3
human CD33 [17] = molecular target: T3, human CD33; test: SPR (Kd); value of the CD33 arm 33-PP-7
human CD7 [18] = molecular target: T1, human CD7; test: SPR (Kd); value of the CD7 arm 7-PP-8
human CD7 [19] = molecular target: T1, human CD7; test: SPR (Kd); value of the CD7 arm 7-PP-7

T3 sequence (P20138 18-259 limits assumed): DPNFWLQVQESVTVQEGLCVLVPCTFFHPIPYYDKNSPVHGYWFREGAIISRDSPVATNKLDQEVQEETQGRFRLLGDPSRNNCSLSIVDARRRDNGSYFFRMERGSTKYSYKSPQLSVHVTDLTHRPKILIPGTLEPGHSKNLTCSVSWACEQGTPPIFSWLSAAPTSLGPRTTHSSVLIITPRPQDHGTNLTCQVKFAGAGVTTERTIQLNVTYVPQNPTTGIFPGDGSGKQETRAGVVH
T4 sequence (P20138 18-364): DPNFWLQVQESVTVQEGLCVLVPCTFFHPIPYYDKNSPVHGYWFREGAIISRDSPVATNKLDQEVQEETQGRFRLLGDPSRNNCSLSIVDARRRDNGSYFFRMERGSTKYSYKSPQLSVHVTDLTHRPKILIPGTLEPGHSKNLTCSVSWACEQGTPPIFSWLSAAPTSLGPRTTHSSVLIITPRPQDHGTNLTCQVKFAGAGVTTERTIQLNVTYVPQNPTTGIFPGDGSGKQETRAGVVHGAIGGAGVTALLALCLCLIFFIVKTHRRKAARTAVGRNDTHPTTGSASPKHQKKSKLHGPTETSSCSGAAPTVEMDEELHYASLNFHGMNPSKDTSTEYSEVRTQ

B1: CD7-PP-1-WT CD7 binding arm (Fab, V domains shown)
VH: QVQLQESGAELVKPGASVKLSCKASGYTFTSYWMHWVKQRPGQGLEWIGKINPSNGRTNYNEKFKSKATLTVDKSSSTAYMQLSSLTSEDSAVYYCARGGVYYDLYYYALDYWGQGTTVTVSS
VL: DIELTQSPATLSVTPGDSVSLSCRASQSISNNLHWYQQKSHESPRLLIKSASQSISGIPSRFSGSGSGTDFTLSINSVETEDFGMYFCQQSNSWPYTFGGGTKLEIKR
notes: also called PP WT
Fold Reduction in binding affinity compared to WT (Kd) (human CD7 [1]): 1.36 fold | Kd (human CD7 [2]): 3.56 nM | FACS fold reduction compared to PP WT (human CD7 on cells [3]): 1 fold | FACS binding (human CD7 on cells [4]): 0.53

B2: CD7-PP-13 CD7 binding arm (Fab, V domains shown)
VH: B1 VH with Y108A
VL: B1 VL
notes: Heavy chain CDR3 Tyr108Ala; also called 7-PP-13 (mut_17-AA-1)
Fold Reduction in binding affinity compared to WT (Kd) (human CD7 [1]): 17 fold | Fold Reduction in binding affinity compared to WT (Kd) (human CD7 [1]; record 2): 27.5 fold | Kd (human CD7 [2]): 44.5 nM | Kd (human CD7 [2]; record 2): 72.2 nM | FACS fold reduction compared to PP WT (human CD7 on cells [5]): 53.2 fold | Fold Reduction in binding affinity compared to PP WT (Kd) (human CD7 [6]): 20.3 fold | FACS binding (human CD7 on cells [4]): 28.4 | Affinity from cell capt. exp. (human CD7 on cells [7]): 46

B3: BVX101 (bispecific antibody)
heavy: QVQLQESGAELVKPGASVKLSCKASGYTFTSYWMHWVKQRPGQGLEWIGKINPSNGRTNYNEKFKSKATLTVDKSSSTAYMQLSSLTSEDSAVYYCARGGVYYDLYYYALDYWGQGTTVTVSSASTKGPSVFPLAPSSKSTSGGTAALGCLVKDYFPEPVTVSWNSGALTSGVHTFPAVLQSSGLYSLSSVVTVPSSSLGTQTYCCNVNHKPSNTKVDKKVEPKSCDKT
light: DIELTQSPATLSVTPGDSVSLSCRASQSISNNLHWYQQKSHESPRLLIKSASQSISGIPSRFSGSGSGTDFTLSINSVETEDFGMYFCQQSNSWPYTFGGGTKLEIKRTVAAPSVFIFPPSDEQLKSGTASVVCLLNNFYPREAKVQWKVDNALQSGNSQESVTEQDSKDSTYSLSSTLTLSKADYEKHKVYACEVTHQGLSSPVTKSFNRGEC
VH: EVQLVQSGAEVKKPGSSVKVSCKASGYTITDSNIHWVRQAPGQSLEWIGYIYPYNGGTDYNQKFKNRATLTVDNPTNTAYMELSSLRSEDTAFYYCVNGNPYLAYWGQGTLVTVSS
VL: DIQLTQSPSTLSASVGDRVTIICRASESLDNYGIRFLTWFQQKPGKAPKLLMYAASNQGSGVPSRFSGSGSGTEFTLTISSLQPDDFATYYCQQTKEVPWSFGQGTKLEIK
notes: bi-Fab; also called CD33-PP-4/CD7-PP-1 WT
Fold reduction in binding affinity vs 33-PP-1 WT (human CD33 [8]): 38.8 fold | Fold reduction in binding affinity vs 7-PP-1 WT (human CD7 [9]): 0 fold

B4: BVX161 (bispecific antibody)
heavy: B3 heavy with Y108A
light: B3 light
VH: B3 VH
VL: B3 VL
notes: bi-Fab; also called CD33-PP-4/CD7-PP-13
Fold reduction in binding affinity vs 7-PP-1 WT (human CD7 [10]): 20.3 fold | Fold reduction in binding affinity vs 33-PP-1 WT (human CD33 [8]): 39 fold

B5: CD33-PP-7 binding arm (Fab, V domains shown)
VH: B3 VH with Y105A
VL: B3 VL
Fold Reduction in binding affinity compared to 33-PP-1 WT (Kd, nM) (human CD33 [11]): 67.9 fold | Kd (human CD33 [12]): 92.3 nM | FACS binding (human CD33 on cells): 464 nM

B6: BVX110 (bispecific antibody)
heavy: B3 heavy with R57G
light: B3 light
VH: B3 VH with Y102W
VL: B3 VL
notes: bi-Fab; also called CD33-PP-1 WT/CD7-PP-2
Fold reduction in binding affinity vs 33-PP-1 WT (human CD33 [13]): 0 fold | Fold reduction in binding affinity vs 7-PP-1 WT (human CD7 [14]): 21.3 fold

B7: BVX130 (bispecific antibody)
heavy: B3 heavy with D104A
light: B3 light
VH: B3 VH with Y102W
VL: B3 VL
notes: bi-Fab; also called CD33-PP-1 WT/CD7-PP-6
Fold reduction in binding affinity vs 7-PP-1 WT (human CD7 [15]): 12.7 fold | Fold reduction in binding affinity vs 33-PP-1 WT (human CD33 [13]): 0 fold

B8: CD33-PP-4 binding arm (Fab, V domains shown)
VH: B3 VH
VL: B3 VL
Fold Reduction in binding affinity compared to 33-PP-1 WT (Kd, nM) (human CD33 [11]): 38.8 fold | Kd (human CD33 [12]): 52.7 nM | FACS binding (human CD33 on cells): 321 nM

B9: BVX120 (bispecific antibody)
heavy: B3 heavy with R57K
light: B3 light
VH: B3 VH with Y102W
VL: B3 VL
notes: bi-Fab; also called CD33-PP-1 WT/CD7-PP-3
Fold reduction in binding affinity vs 33-PP-1 WT (human CD33 [13]): 0 fold | Fold reduction in binding affinity vs 7-PP-1 WT (human CD7 [16]): 9.1 fold

B10: BVX152 (bispecific antibody)
heavy: B3 heavy with R57K, Y108A
light: B3 light
VH: B3 VH with Y105A
VL: B3 VL
notes: bi-Fab; also called CD33-PP-7/CD7-PP-8
Fold reduction in binding affinity vs 33-PP-1 WT (human CD33 [17]): 68 fold | Fold reduction in binding affinity vs 7-PP-1 WT (human CD7 [18]): 87 fold

B11: BVX140 (bispecific antibody)
heavy: B3 heavy with R57G, Y108A
light: B3 light
VH: B3 VH with Y102W
VL: B3 VL
notes: bi-Fab; also called CD33-PP-1 WT/CD7-PP-7
Fold reduction in binding affinity vs 33-PP-1 WT (human CD33 [13]): 0 fold | Fold reduction in binding affinity vs 7-PP-1 WT (human CD7 [19]): 152 fold

Reference: patent US20250269048A1 (BIVICTRIX, published 2025)
